Data on 31 sequences can be found in the supplement of paper PMC9170038.

This data set relates to MS2 coat protein. The data set can be described thus: apparent KD of MS2 coat protein; designed switch direction (-1 OFF switch, 1 ON switch): -1; higher = weaker reporter binding. The gist of the method: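 The apparent KD reported per design is the median over clusters of curve fits to normalised cluster fluorescence. The RNA switches were transcribed on Illumina chips by stalled E. coli RNA polymerase. SNAP-549-labelled MS2 coat protein was titrated from 0.7 or 1.5 nM, doubling up to 3 µM, in Tris-HCl pH 7.5 buffer containing KCl, MgCl2, BSA, DTT, tRNA and Tween-20, with no input, 200 uM small-molecule ligand, or an oligonucleotide input.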

Where [1] appears, read: input ligand: microRNA oligo, concentration not stated.
[2] abbreviates: Eterna round: R95, input ligand: microRNA oligo, concentration not stated.
Setting [3] is: Eterna round: R95, input ligand: FMN 200 uM.
The mark [4] stands for this setting: Eterna round: R95, input ligand: none.

As to “GGCUUGUAAGGAUAUGCGAAGGGAAGGAGAGGGACAGAGAAGCAGAAGGUACAUGAGGAUCACCCAUGUAAGGG [AK-MS2ROC-r4-exclusion4-7] (Eterna round: R97, puzzle: Exclusion 4)”, the “apparent KD of MS2 coat protein” value (input ligand: FMN 200 uM) is 247 nM and the “apparent KD of MS2 coat protein” value (input ligand: none) was found to be 94.9 nM.
Take “AGAGUGCUGCGAGGAUAUACAUGAGGAUCACCCAUGUAAAAGUGUGAGGCAAAGCCUCACACUAUGUAGAAGGCGCAGUACUCA [Mat - Exclusion NG 2 - Mod of JL - D11] (Eterna round: R96, puzzle: Exclusion NG 2)”: the “apparent KD of MS2 coat protein” value (input ligand: FMN 200 uM) came to 20.2 nM, the “apparent KD of MS2 coat protein” value under setting [1] stood at 12.6 nM and the “apparent KD of MS2 coat protein” value (input ligand: none) is 19.3 nM.
Take “GAUAGAGAGCAGGAUAUCUUAGAAAUGUAUUAUAGAGAAGGGCUCACAUGAGGAUCACCCAUGUGGUCCUAGAU [JL Dibiri mod 15] (puzzle: Exclusion 6)”: the “apparent KD of MS2 coat protein” value under setting [2] is 16 nM.
Same read-out and setting: to “UUUGUACAUGAGGAUCACCCAUGUUAGGAUAUCUCGCCGUCGGCUUGCCGACGGUAUUAGAGAAGGGACAAGGG [JL Tixe mod 8] (puzzle: Exclusion 1)” belongs 94.2 nM.
For the sequence “UUUUUGUGAGGAUAUCAGUAGUAAAUAAAUAAAAUUACUACUGAGAAGGCACAUGAGGAUCACCCAUGUUUUUU [Mat - Exclusion 4 - Mod of Salish - D68] (puzzle: Exclusion 4)”, the “apparent KD of MS2 coat protein” value under setting [2] turned out to be 41.8 nM.
As for “ACUUACUGAGGAUAUACAUAGAUUUACAUGAGGAUCACCCAUGUUCCUCUAUGUAUAUAUGUAGAAGGCAGAAGAU [Mat - Exclusion 5 - JL Mod - D34] (Eterna round: R97, puzzle: Exclusion 5)”, the “apparent KD of MS2 coat protein” value by setting is: (input ligand: FMN 200 uM) 56.9 nM; (input ligand: none) 18.9 nM.
Take “AAUAAGGGAGGAUAUACAUUAAAUCCUAUUUUCUUUUUGUUACAUGAGGAUCACCCAUGUAGAAGGCCCAAUAA [lam1] (Eterna round: R97, puzzle: Exclusion 2)”: the “apparent KD of MS2 coat protein” value runs as follows: (input ligand: FMN 200 uM) 54.5 nM; (input ligand: none) 23 nM.
In the case of “AGCUGUGGCCGAGGAUAUCUGUUCCAUAAAACCGAAAUAUAAUCGGACAUGAGGAUCACCCAUGUAGAGAAGGCGGUCUCAGCA [Eli eng2 - 099] (Eterna round: R96, puzzle: Exclusion NG 2)”, under setting [1], the “apparent KD of MS2 coat protein” value was determined as 18.3 nM.
Consider “AAAGCCAAGCGAGGAUAUGCGAUAGUUGAUCUUCGUGAGGACAUGAGGAUCACCCAUGUGCUGCAGCAGAAGGCGCAGGUAAAG [Anramaqu] (Eterna round: R96, puzzle: Exclusion NG 2)”, for which the “apparent KD of MS2 coat protein” value (input ligand: FMN 200 uM) came to 754 nM, the “apparent KD of MS2 coat protein” value under setting [1] turned out to be 140 nM and the “apparent KD of MS2 coat protein” value (input ligand: none) turned out to be 318 nM.
On to “AAUAAUGAUAAGGAUAUCACUAGCUGCGGCUAGUGAGAAGGUAUCACAUGAGGAUCACCCAUGUGUUCCAAUAA [Ex6/6-A3] (Eterna round: R97, puzzle: Exclusion 6)”, for which the “apparent KD of MS2 coat protein” value (input ligand: FMN 200 uM) stood at 33.1 nM and the “apparent KD of MS2 coat protein” value (input ligand: none) amounted to 14.1 nM.
As to “CCGGCGUGGUGCGGUUGUCGUUCGACAUGAGGAUCACCCAUGUAGGAUAUGCGCGUGGUCGCGCCGCAGAAGGGCAUCGUUUGG [Random, 15% A] (Eterna round: R96, puzzle: Exclusion NG 3)”, the “apparent KD of MS2 coat protein” value turned out to be 10.7 nM (input ligand: FMN 200 uM), 10.7 nM under setting [1] and 14.5 nM (input ligand: none).
In the case of “ACGUAACGAGCUUGAUCCAACAUGAGGAUCACCCAUGUGCUCGUCUUAUAACGUACUGUCACGUUAGUGAUAGUGCG [Sensor v3, turn-off variant 1 (MOD of Eli's v1-13 v.5)] (puzzle: Sensor v3, turn-off variant 1)”, the “apparent KD of MS2 coat protein” value by setting is: under setting [3], 971 nM; under setting [2], 369 nM; under setting [4], 1190 nM.
For the sequence “AGAUCACGAGGAUAUCCAGUGUAGUACAUGAGGAUCACCCAUGUUGAUCGUGGAUUCUUGGGAGAAGGCGUGGUUG [Eternabot (L2) Solution 100] (Eterna round: R97, puzzle: Exclusion 5)”, the “apparent KD of MS2 coat protein” value (input ligand: FMN 200 uM) came to 237 nM and the “apparent KD of MS2 coat protein” value (input ligand: none) was 60.6 nM.
For the sequence “ACAUGAGGAUCACCCAUGUCCGGCUGGUCCGUCUCGGCUGUCGAGGAUAUAGCUCGGUGUCCGCGCUAGAAGGCGGGAGCUGGC [Aenatbe mod 67] (Eterna round: R96, puzzle: Exclusion NG 3)”, the “apparent KD of MS2 coat protein” value turned out to be 91.5 nM (input ligand: FMN 200 uM), 49.8 nM under setting [1] and 85.1 nM (input ligand: none).
Take “CUCUUGUCAGGAUAUCUAAGCCACCUCCGGGCGGCCGAAUUAGAGAAGGGACAUGAGGAUCACCCAUGUAAAAG [Qumabi] (puzzle: Exclusion 4)”: the “apparent KD of MS2 coat protein” value reads like this: under setting [3], 30 nM; under setting [2], 138 nM; under setting [4], 174 nM.
As for “AGGGAGCGAGGAUAUACAGAGUAAGAAACUACUCCCUCAGUACAUGAGGAUCACCCAUGUAGAAGGCGCCCGAC [EX2 A.2] (Eterna round: R97, puzzle: Exclusion 2)”, the “apparent KD of MS2 coat protein” value (input ligand: FMN 200 uM) came out at 33.7 nM and the “apparent KD of MS2 coat protein” value (input ligand: none) is 20.9 nM.
With “CGUACUAACACGAAAGUGUUAGUACAAUAAGCUUGUGAAACAUGAGGAUCACCCAUGUCCUCAUAAGCUCGUCUUAU [salish99_TOv2_r3_007] (puzzle: Sensor v3, turn-off variant 2)”, the “apparent KD of MS2 coat protein” value reads like this: under setting [3], 17.1 nM; under setting [2], 967 nM; under setting [4], 15.7 nM.
Regarding “UCUAGGAGAGGAUAUACAUGAGGAUCACCCAUGUGCAUGAUCAGGCGUCAGUCGCACCGUAGAAGGUUCCAGAA [Eternabot (L2) Solution 40] (Eterna round: R97, puzzle: Exclusion 3)”, the “apparent KD of MS2 coat protein” value was found to be 89.9 nM (input ligand: FMN 200 uM) and 47 nM (input ligand: none).
For “UAUAUGUCAGGAUAUUAGUAGUAAAUGAAUAAAAUUAUUACUGAGAAGGGACAUGAGGAUCACCCAUGUGUCUC [Mat - Exclusion 4 - Eli Mod - D26] (Eterna round: R97, puzzle: Exclusion 4)”, the “apparent KD of MS2 coat protein” value came to 577 nM (input ligand: FMN 200 uM) and 175 nM (input ligand: none).
As for “CUCUGACAUGAGGAUCACCCAUGUGAGGAUAUGAUGCAGCAGUGGUCUACGCUGUGCAUCAGAAGGCACAUGUG (puzzle: Exclusion 1)”, under setting [2], the “apparent KD of MS2 coat protein” value turned out to be 124 nM.
With “ACUCAACAGUAGGAUAUCAUCAAACUAUUGUGAUGAGAAGGACUGACAUGAGGAUCACCCAUGUUAACGUGAAG [Mod of Brourd 3 - Jieux - Exclusion 6] (Eterna round: R97, puzzle: Exclusion 6)”, the “apparent KD of MS2 coat protein” value reads like this: (input ligand: FMN 200 uM) 41.8 nM; (input ligand: none) 28.4 nM.
On to “GGAUCGAGUGUGAGGAUAUGCAGGUCCUUGGAUCUGCAGAAGGCACAUGAGGAUCACCCAUGUGGAGACGGUCC [Mat - Exclusion 4 - JL Mod - D75] (puzzle: Brourd's mod of Exclusion 4)”, for which the “apparent KD of MS2 coat protein” value was determined as 406 nM under setting [3], 64.2 nM under setting [2] and 110 nM under setting [4].
As to “UUUAUGUCAGGAUAUACAUGAGGAUCACCCAUGUAUAUCUUAAAGUAUACAUGGGAAUGUAGAAGGGACGUCCU [LRO-Excl05-29-mod of Pseudoloop5 by Omei] (Eterna round: R97, puzzle: Exclusion 3)”, the “apparent KD of MS2 coat protein” value (input ligand: FMN 200 uM) is 31.3 nM and the “apparent KD of MS2 coat protein” value (input ligand: none) turned out to be 30.2 nM.
As for “GAAAGACAUGAGGAUCACCCAUGUCAGGAUAUGAUGCCAGCGUAGCUAGUAGGUUUUGUCAGAAGGGACGGGUU [Eternabot (L1) Solution 70] (Eterna round: R97, puzzle: Exclusion 1)”, the “apparent KD of MS2 coat protein” value stood at 32.2 nM (input ligand: FMN 200 uM) and 27.4 nM (input ligand: none).
With “GUGGCACAUGAGGAUCACCCAUGUUAGGAUAUGCUCAAAACGCCCUAGGGUAAGCUGUGUAGAAGGAGCAGGAC [Eternabot (L1) Solution 52] (Eterna round: R97, puzzle: Exclusion 1)”, the “apparent KD of MS2 coat protein” value (input ligand: FMN 200 uM) is 33.7 nM and the “apparent KD of MS2 coat protein” value (input ligand: none) came out at 35.6 nM.
With “UAUUACCUAGGAUAUACAUGAGGAUCACCCAUGUCACGGGUCAACUUGUCCUACGCGUGUAGAAGGAGGGACCC [JL Ceriza mod 7] (puzzle: Exclusion 3)”, the “apparent KD of MS2 coat protein” value under setting [2] is 19.7 nM.
Turning to “GGGCCGGCCGGAGGAUAUGCGGCCCGGCCGGCCGGUGGGCCGGCCGGGACAUGAGGAUCACCCAUGUAGAAGGCCGGCCGGCCC [low energy, MS2 in another position, A 14%] (Eterna round: R96, puzzle: Exclusion NG 2)”, the “apparent KD of MS2 coat protein” value by setting is: (input ligand: FMN 200 uM) 18.8 nM; under setting [1], 13.7 nM; (input ligand: none) 15.9 nM.
On to “CGAGCUAAUGUGAGGAUAUACCUAUGGAUACAUAGGUAGAAGGCACAUGAGGAUCACCCAUGUCCUAUAGCUCG [jl-bmx4-4.55] (Eterna round: R97, puzzle: Brourd's mod of Exclusion 4)”, for which the “apparent KD of MS2 coat protein” value is, setting by setting: (input ligand: FMN 200 uM) 241 nM; (input ligand: none) 304 nM.
For “UAUUGCAAGUGAGGAUAUGACAUGAGGAUCACCCAUGUAAAGGGAGUUGACUAUAUAGCAAGAUAUCAGAAGGCACAACUGUAU [JR_ExcNG2_Sub004] (Eterna round: R96, puzzle: Exclusion NG 2)”, the “apparent KD of MS2 coat protein” value turned out to be 309 nM (input ligand: FMN 200 uM), 114 nM under setting [1] and 131 nM (input ligand: none).
For “UUUGUUUAUGUAGGAUAUGCCUGGCGUGCCUUCGCAGAAGGACAUGAGGAUCACCCAUGUAUUGCGGUCUGCGUUCAGAUCGCA [salish99_ExNG1_r4_031] (Eterna round: R96, puzzle: Exclusion NG 1)” the same measures were 72.6 nM, 30 nM and 42.5 nM.
Consider “GGUUAUUGCAAGGAUAUGCUUUUUUUUGAAAUUGCAGAAGGUGCAACAUGAGGAUCACCCAUGUUGGAUGGGUU [JR_E6_Sub018] (puzzle: Exclusion 6)”, for which the “apparent KD of MS2 coat protein” value under setting [2] is 106 nM.
